# Values quoted from earlier work as cited in paper PMC2686754.
# Legend:
# TGF-β1 (Homo sapiens) = TGF-β1 (Homo sapiens) (UniProt P01137)
# BMP4 (Homo sapiens) = BMP4 (Homo sapiens) (UniProt P12644)
# UniProt P12644, sequence (P12644 293-408): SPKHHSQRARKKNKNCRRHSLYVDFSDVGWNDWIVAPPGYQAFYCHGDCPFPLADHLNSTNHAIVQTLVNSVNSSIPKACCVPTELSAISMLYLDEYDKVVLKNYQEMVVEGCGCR
# UniProt P01137, sequence (P01137 279-390): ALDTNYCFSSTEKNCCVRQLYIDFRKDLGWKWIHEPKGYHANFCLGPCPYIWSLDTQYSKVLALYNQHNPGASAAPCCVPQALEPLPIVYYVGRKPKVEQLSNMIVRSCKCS
substance,measurement,setting,value
CCN2 (from UniProt P29279),Kd,TGF-β1 (Homo sapiens),30 nM
same,Kd,BMP4 (Homo sapiens),5 nM
